Laboratory results: US20230190810A1 (FRED HUTCHINSON CANCER CENTER, published 2023)

How the values were obtained:
[1] = biological target: T1, human full-length CD33 (CD33^FL) on cells (human, UniProt P20138 18-364); experiment: flow cytometry, murine antibody, control = secondary antibody only; REH cells expressing CD33FL
T1 construct: Used for engineered REH/ML-1 sublines overexpressing CD33^FL and for endogenous CD33 on parental AML cell lines; also called Siglec-3

[2] = biological target: T2, artificial CD33 with deletion of exons 3 and 4, lacking the C2-set domain (CD33^ΔE3-4), on cells (human, UniProt P20138 1-364); experiment: flow cytometry on engineered cells
T2 construct: it probably still carries the CD33 signal peptide (aa 1-17), which is not part of the protein on cells; also called CD33 V-set construct (exon 3 and 4 deleted)

[3] = biological target: T3, purified extracellular domain of human CD33^ΔE2 with C-terminal His and Avi tags (human, UniProt P20138 18-259); experiment: SPR (Carterra), antibody captured on a protein A/G lawn, CD33ΔE2 antigen in solution; column 'CD33ΔE2 kD (nM), 4 µg/mL' (purified antibody)
T3 construct: extracellular domain; also called CD33^ΔE2 ectodomain; not shown: C-terminal His and Avi tags
Description: (§1) FIG. 8. A kinetic profile was established from purified anti-CD33 antibodies and hybridoma supernatants by use of surface plasmon resonance technology (SPR) from the Carterra instrument. SPR is a great way to estimate the kinetic rate constants of binding interactions, of which can fit to a 1:1 Langmuir binding model to determine the on-rate (Kₒₙ) and off-rate (Koff). Both of these rate parameters allow for the calculation of the dissociation rate constant (Kd), referred to as binding affinity. The antibody clones were captured as an array on a protein A/G lawn, which was immobilized to a HC30M chip. The first kinetic experiment used a CD33^FL antigen which started at a concentration of 2 μM preceding a 4-fold titration to 2 nM. Following 10 HBSTE buffer blanks, 6 injections from low to high concentrations were subsequently flowed over the array to assess kinetics of each clone printed to the array, 1-min baseline, 5-min association, 10-min dissociation. The chip was then regenerated with 0.85% phosphoric acid pH 1.7 for a fresh reprint of the same array of clones to the protein A/G lawn, in case any lingering antigen stayed bound to the array preventing an interaction with the 2nd antigen of interest, of which CD33^ΔE2 flowed over the array of antibodies. […]

[4] = biological target: T3, purified extracellular domain of human …; experiment: SPR, Biacore T100, 25 C; 1H7 captured on anti-mouse IgG, purified CD33^ΔE2 ectodomain as analyte; target CD33^ΔE2 (lacking V-set domain)
Experimental: (§2) FIG. 9. SPR assessment of purified extracellular domains from CD33^FL or CD33^ΔE2 binding to captured 1H7. Black lines are data and gray lines are the model fits. SPR experiments were performed at 25° C. on a Biacore T100 (Cytiva) using a running buffer of 10 mM HEPES, pH 7.4, 150 mM NaCl, 3 mM EDTA, 0.05% surfactant P20 with 0.1 mg/mL bovine serum albumin. Rabbit anti-mouse IgG was amine coupled to 2 flow cells of a Series S CM5 chip (7300 RUs). 1H7 at 0.2 μg/mL was injected at 10 μL/min over 1 flow cell of immobilized anti-mouse IgG for either 2 mins or 5 mins to capture 94 or 163 RUs of antibody for the CD33^FL and CD33^ΔE2 binding experiments, respectively. Purified ectodomains for CD33^FL and CD33^ΔE2 (engineered with C-terminal His and Avi tags) were run as concentration series at 35 μL/min over both the captured antibody and anti-mouse IgG alone (reference) surfaces. CD33^FL was injected for 10 mins and allowed to dissociate for 15 mins. CD33^ΔE2 was injected for 7 mins and dissociated for 7 mins. Ectodomain concentrations (serial 2-fold dilutions starting at 75 nM for CD33^FL and 2 μM for CD33^ΔE2) were run in duplicate, randomized, and included a buffer blank every 4th injection. The CM5 chip was regenerated with 10 mM glycine, pH 1.7 for 3 minutes at 20 μL/min and 1H7 recaptured prior to each CD33 injection. Data was double referenced and analyzed in BiaEval 2.0.4.

[5] = biological target: T4, purified extracellular domain of human CD33^FL with C-terminal His and Avi tags (human, UniProt P20138 18-259); experiment: SPR (Carterra), antibody captured on a protein A/G lawn, CD33FL antigen in solution; column 'CD33FL kD (nM), 4 µg/mL' (purified antibody)
T4 construct: also called CD33^FL ectodomain; CD33^FL antigen; not shown: C-terminal His and Avi tags
Description: (§3) FIG. 8. A kinetic profile was established from purified anti-CD33 antibodies and hybridoma supernatants by use of surface plasmon resonance technology (SPR) from the Carterra instrument. SPR is a great way to estimate the kinetic rate constants of binding interactions, of which can fit to a 1:1 Langmuir binding model to determine the on-rate (Kₒₙ) and off-rate (Koff). Both of these rate parameters allow for the calculation of the dissociation rate constant (Kd), referred to as binding affinity. The antibody clones were captured as an array on a protein A/G lawn, which was immobilized to a HC30M chip. The first kinetic experiment used a CD33^FL antigen which started at a concentration of 2 μM preceding a 4-fold titration to 2 nM. Following 10 HBSTE buffer blanks, 6 injections from low to high concentrations were subsequently flowed over the array to assess kinetics of each clone printed to the array, 1-min baseline, 5-min association, 10-min dissociation. The chip was then regenerated with 0.85% phosphoric acid pH 1.7 for a fresh reprint of the same array of clones to the protein A/G lawn, in case any lingering antigen stayed bound to the array preventing an interaction with the 2nd antigen of interest, of which CD33^ΔE2 flowed over the array of antibodies. Carterra kinetic software was used to process the data to fit the raw data to kinetic curves for each concentration of antigen injected over the array.

[6] = biological target: T4, purified extracellular domain of human …; experiment: SPR, Biacore T100, 25 C; 1H7 captured on anti-mouse IgG, purified CD33^FL ectodomain as analyte; target CD33^FL (full-length ectodomain)
Experimental: as §2

[7] = biological target: T4, purified extracellular domain of human …; experiment: SPR (Carterra), antibody captured on a protein A/G lawn, CD33FL antigen in solution; column 'CD33FL kD (nM), 1 µg/mL' (purified antibody)
Description: as §3

[8] = biological target: T3, purified extracellular domain of human …; experiment: SPR (Carterra), antibody captured on a protein A/G lawn, CD33ΔE2 antigen in solution; column 'CD33ΔE2 kD (nM), 1 µg/mL' (purified antibody)
Description: as §1

[9] = biological target: T1, human full-length CD33 (CD33^FL) on …; experiment: flow cytometry, murine antibody, control = secondary antibody only; ML-1 parental cells (endogenous CD33) and REH cells expressing CD33FL
[10] = biological target: T4, purified extracellular domain of human …; experiment: SPR (Biacore); column 'CD33FL Biacore kD (nM)'
[11] = biological target: T3, purified extracellular domain of human …; experiment: SPR (Carterra), antibody or hybridoma supernatant captured on a protein A/G lawn, CD33ΔE2 antigen in solution
Description: as §1

[12] = biological target: T1, human full-length CD33 (CD33^FL) on …; experiment: flow cytometry, murine antibody, control = secondary antibody only; REH cells expressing CD33FL; remark: listed apart in the source

T4 sequence (P20138 18-259): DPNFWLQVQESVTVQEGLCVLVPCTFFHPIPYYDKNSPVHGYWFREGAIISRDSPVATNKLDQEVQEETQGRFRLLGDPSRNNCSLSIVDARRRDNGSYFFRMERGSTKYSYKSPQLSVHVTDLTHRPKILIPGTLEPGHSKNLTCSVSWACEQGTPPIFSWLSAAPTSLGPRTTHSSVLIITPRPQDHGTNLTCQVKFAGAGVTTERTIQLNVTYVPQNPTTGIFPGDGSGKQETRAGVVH
T3 sequence (P20138 140-259 limits assumed, stated change not applied): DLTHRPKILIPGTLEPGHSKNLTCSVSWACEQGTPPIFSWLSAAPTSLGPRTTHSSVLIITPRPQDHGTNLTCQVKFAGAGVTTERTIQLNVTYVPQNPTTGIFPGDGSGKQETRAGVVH
T1 sequence (P20138 18-364): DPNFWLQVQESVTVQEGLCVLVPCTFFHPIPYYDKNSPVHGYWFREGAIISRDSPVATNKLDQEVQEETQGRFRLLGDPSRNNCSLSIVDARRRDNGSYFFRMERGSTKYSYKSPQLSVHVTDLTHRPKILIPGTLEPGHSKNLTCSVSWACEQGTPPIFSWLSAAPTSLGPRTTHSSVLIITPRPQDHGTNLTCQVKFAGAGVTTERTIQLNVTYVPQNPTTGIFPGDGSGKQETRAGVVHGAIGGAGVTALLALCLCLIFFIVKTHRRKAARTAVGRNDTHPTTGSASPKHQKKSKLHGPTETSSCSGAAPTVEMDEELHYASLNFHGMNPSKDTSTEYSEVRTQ
T2 sequence (P20138 other isoform, or with tags, fused parts or gaps mutant limits assumed): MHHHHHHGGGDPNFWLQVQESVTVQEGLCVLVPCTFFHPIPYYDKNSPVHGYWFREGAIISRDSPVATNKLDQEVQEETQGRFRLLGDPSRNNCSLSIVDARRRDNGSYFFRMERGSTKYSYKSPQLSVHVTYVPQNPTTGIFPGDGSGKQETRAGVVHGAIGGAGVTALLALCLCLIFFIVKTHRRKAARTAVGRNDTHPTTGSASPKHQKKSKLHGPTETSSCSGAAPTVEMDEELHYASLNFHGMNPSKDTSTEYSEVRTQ

B1: 13E11 (antibody, V domains shown)
VH: KVQLQQSGAELVKPGASVKLSCKASGYTFTDYTLHWLKQRSGQGLEWIGWFYPTSGSINYNERFKDKATLTADKSSSTVYMELSRLTSVDSAVYFCARHKFGFDYWGQGTTLTVSS
VL: DIVLTQSPVSLAVSLGQRATISCKASHGVEYAGAHYMNWYQQKPGQPPKLLIYAASNLGSGIPPRFSGSGSGTDFTLNIHPVEEEDSATYYCQQSNEDPRTFGGGTKLEIK
notes: also called 13E11 antibody; murine CD33^C2-set-specific antibody, clone 13E11
B1: no binding [1].

B2: 1H7 antibody (murine CD33^PAN antibody, hybridoma clone and recombinant 1H7) (antibody, V domains shown)
VH: QVQLQQSGAELVKPGASVKISCKASGYAFSNYWMNWVKQRPGKGLEWIGQINPGDGDTNYNGKFKGKATLTADKSSSTAYMQLSSLTSEDSAVYFCAREDRDYFDYWGQGTTLTVSS
VL: DIQMTQTTSSLSASLGDRVTISCRASQDINYYLNWYQQKPDGTVKLLIYYSSRLHSGVPSRFSGSGSGTDFSLTISNLEQEDIATYFCQQDDALPYTFGGGTKLEIK
notes: Murine antibody (captured on anti-mouse IgG in the Biacore run); both are treated as one molecule; also called clone 1H7
In the case of B2, the binding result [2] is reported as “no binding”, the Kd [3] is reported as 7.6 nM and the Kd [4] is reported as 280 nM. For the same binder, the Kd [5] was 4.2 nM, the Kd [6] was 5.35 nM and the Kd [7] was 0.674 nM. The Kd [8] was 5.3 nM.

B3: 6H9 antibody (murine CD33^PAN antibody) (antibody, V domains shown)
VH: EVMLVESGGGLVKPGGSLKLSCAASGFTFSSYTMSWVRQTPEKRLEWVATISGDGGNTYYSDSVKGRFTISRDNAKNTLYLQMSSLRSEDTALYYCARQGTGTDYFDYWGQGTTLTVS
VL: DIQMTQTTSSLSASLGDRVTISCRASQDINIYLNWYQQKPDGTVKLLIYYTSRLHSGVPSRFSGSGSGTDYSLTISNLEQEDIATYFCQQGDTLPWTFGGGTKLEIK
notes: Murine hybridoma antibody
B3: binds [9].

B4: 9G2 antibody (murine CD33^PAN antibody) (antibody, V domains shown)
VH: EVKLVESEGGLVQPGSSMKLSCTASGFTFSDYYMSWVRQVPEKGLEWVASINYDGGSTYYLDSLKSRFIISRDNTKNILYLQMSSLKSEDTATYYCARDRGDGDYFDYWGQGTTLTVSS
VL: DIQMTQTTSSLSASLGDRVTISCKTSQDIYNYLNWYQQKPDGTVKLLIYYTSRLHSGVPSRFSGGGSGTDYSLTISNLEQEDIATYFCQQGDTLPWTFGGGTKLEIK
notes: Murine hybridoma antibody
B4: binds [9].

B5: 8F5 antibody (murine CD33^V-set antibody) (antibody, V domains shown)
VH: EVKLVESGGGLVQPGGSLKLSCAASGFTFSDFYMYWVRQTPEKRLEWVAFISNAGVTTYYPDTVEGRFTISRDNAKNTLYLQMSRLMSEDTAMYYCTKSDYDGAWFPYWGQGTLVTVS
VL: DIVMSQSPSSLPVSVGEKVTLSCKSSQSLLYSRNQYNFLAWYQQRPGQSPKLLIYWASTRESGVPDRFTGSGSGTDFTLTISSVKAEDLAVYYCQQYYSYPYTFGGGTKLEIK
notes: Murine hybridoma antibody
In the case of B5, the Kd [5] is reported as 6.1 nM, the Kd [7] is reported as 11 nM and the Kd [10] is reported as 8 nM. B5: no binding [11].

B6: 5D12 antibody (murine CD33^V-set antibody) (antibody, V domains shown)
VH: QVQLQQSGAEVVKPGASVKISCRASGYAFSNYWMNWVKQRPGKGLEWIGQIYPGNFNTDYNGQFKGKATLTVDKSSNTAYMQLSSLTSEDSAVYFCARFFDFGAYFTLDYWGQGTSVTVSS
VL: DIKMTQSPSSIYASLGERVTINCKASQDIKSYLSWYQQKPWKSPKTLIYYATTLADGVPSRFSGSGSGQDYSLTISSLESDDTATYYCLHHGESPWTFGEGTKLEIK
notes: Murine hybridoma antibody
Work on B6 yielded a Kd [5] of 1.1 nM, a Kd [7] of 2.3 nM and a Kd [10] of 0.122 nM. B6: no binding [11].

B7: 2D5 antibody (murine CD33^PAN antibody) (antibody, V domains shown)
VH: QVQLQQSGAELVRPGASVTLSCKASGYTFTDYDMHWVKQTPVHGLEWIGAIDPETGGTAYNQNFKGKAILTVDKSSRIAYMELRSLTSEDSAVFYCTSDYDYFGVWGTGTTVTVSS
VL: DIVMTQSQKFMSTSVGDRVSVTCKASQNVGTNVVWYHKKPGQSPKGLIYSASDRYSGVPDRFTGSGSGTDFTLTINNVQSEDLAEYFCQQYNIYPYTFGGGTKLEIK
notes: Murine hybridoma antibody
B7: binds [12].
